In patent publication US20240317847A1 (Bayer, published 2024):

T1: murine IL-11 (mouse, UniProt P47873 22-199)
T1 construct: Invigate recombinant protein; biotinylated when immobilized in the Di-complex ELISA; also called mIL11; mIL-11
T1 sequence: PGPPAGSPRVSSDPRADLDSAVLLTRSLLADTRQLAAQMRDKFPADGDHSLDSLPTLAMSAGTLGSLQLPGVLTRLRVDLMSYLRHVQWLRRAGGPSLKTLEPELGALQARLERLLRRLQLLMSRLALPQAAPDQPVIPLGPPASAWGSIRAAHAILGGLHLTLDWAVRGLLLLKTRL

T2: human IL2Ra (human, UniProt P01589 22-240, limits assumed)
T2 construct: bought protein, coated on the plate; also called hIL2RA; IL-2 receptor alpha
T2 sequence (looked up): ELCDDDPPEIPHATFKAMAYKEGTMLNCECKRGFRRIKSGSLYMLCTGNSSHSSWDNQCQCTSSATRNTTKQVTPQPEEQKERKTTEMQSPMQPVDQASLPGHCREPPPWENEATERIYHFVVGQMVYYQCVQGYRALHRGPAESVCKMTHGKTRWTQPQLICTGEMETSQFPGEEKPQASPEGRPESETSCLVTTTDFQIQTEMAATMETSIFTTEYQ

B1: TPP-29603 (bispecific antibody, IgG1)
chain 1: QVQLVESGGGVVQPGRSLRLSCAASGFTFSHYDMHWVRQAPGKGLEWVAVISYHGSVKFYADSVKGRFTISRDNSKNTLYLQMNSLRAEDTAVYYCARTPGFHFDYWGQGTLVTVSSGGGGSGGGGSGGGGSQSVLTQPPSASGTPGQRVTISCSGSSSNIGSNYVSWYQQLPGTAPKLLIYYDDLRPSGVPDRFSGSKSGTSASLAISGLRSEDEADYYCSAWDDSLSGVVFGGGTKLTVLGGGGSGGGGSGGGGSGVECPPCPAPPVAGPSVFIFPPKPKDVLTITLTPKVTCVVVDISKDDPEVQFSWFVDDVEVHTAQTQPREEQFNSTFRSVSELPIMHQDWLNGKEFKCRVNSAAFPAPIEKTISKTKGRPKAPQVYTIPPCKEQMAKDKVSLWCMITDFFPEDITVEWQWNGQPAENYKNTQPIMDTDGSYFVYSKLNVQKSNWEAGNTFTCSVLHEGLHNHHTEKSLSHSPGK
chain 2: EVQLLESGGGLVQPGGSLRLSCAASGFTFSSYGMHWVRQAPGKGLEWVAVISYDGSYKYYADSVKGRFTISRDNSKNTLYLQMNSLRAEDTAVYYCAAGVPDYWGQGTLVTVSSGGGGSGGGGSGGGGSQSVLTQPPSASGTPGQRVTISCSGSSSNIGSDYDVHWYQQLPGTAPKLLIYSNEERPSGVPDRFSGSKSGTSASLAISGLRSEDEADYYCSAWDSSLSGPVFGGGTKLTVLGGGGSGGGGSGGGGSGVECPPCPAPPVAGPSVFIFPPKPKDVLTITLTPKVTCVVVDISKDDPEVQFSWFVDDVEVHTAQTQPREEQFNSTFRSVSELPIMHQDWLNGKEFKCRVNSAAFPAPIEKTISKTKGRPKAPQVCTIPPPKEQMAKDKVSLSCAITDFFPEDITVEWQWNGQPAENYKNTQPIMDTDGSYFVVSKLNVQKSNWEAGNTFTCSVLHEGLHNHHTEKSLSHSPGK
notes: scFv-kih-mIgG1; bispecific comprising CDRs of TPP-29528 and TPP-29519
B2: TPP-18068 (antibody, mouse IgG1)
heavy: EVQLLESGGGLVQPGGSLRLSCAASGFTFSSYGMHWVRQAPGKGLEWVSVISYDGSYKYYADSVKGRFTISRDNSKNTLYLQMNSLRAEDTAVYYCAAGVPDYWGQGTLVTVSSAKTTPPSVYPLAPGSAAQTNSMVTLGCLVKGYFPEPVTVTWNSGSLSSGVHTFPAVLQSDLYTLSSSVTVPSSTWPSETVTCNVAHPASSTKVDKKIVPRDCGCKPCICTVPEVSSVFIFPPKPKDVLTITLTPKVTCVVVDISKDDPEVQFSWFVDDVEVHTAQTQPREEQFNSTFRSVSELPIMHQDWLNGKEFKCRVNSAAFPAPIEKTISKTKGRPKAPQVYTIPPPKEQMAKDKVSLTCMITDFFPEDITVEWQWNGQPAENYKNTQPIMDTDGSYFVYSKLNVQKSNWEAGNTFTCSVLHEGLHNHHTEKSLSHSPGK
light: QSVLTQPPSASGTPGQRVTISCTGSSSNIGAGYDVHWYQQLPGTAPKLLIYSNNERPSGVPDRFSGSKSGTSASLAISGLRSEDEADYYCAAWDDSLNGPVFGGGTKLTVLGQPKSSPSVTLFPPSSEELETNKATLVCTITDFYPGVVTVDWKVDGTPVTQGMETTQPSKQSNNKYMASSYLTLTARAWERHSSYSCQVTHEGHTVEKSLSRADCS
notes: mIgG1, Lambda

What was measured:
murine IL-11 = target: T1, murine IL-11; experiment: Di-complex ELISA, canine IL11RA-hFc binding to immobilized mIL-11, competition
Description: In the Di-complex ELISA format anti IL-11 antibodies are tested for the ability to interfere with the formation of complexes consisting of immobilized murine IL-11 (Invigate, e.g., lot #C210819-09) or human IL-11 (Invigate, e.g., lot #C121021-19), and murine IL11RA-Fc fusion proteins or canine IL11RA-human-Fc fusion protein (FIG. 17a, b).
Bispecific antibodies were subjected to the experimental assay procedure described in Example 18 and IC50 [M], respectively efficacy (%) were calculated accordingly.

human IL2Ra = target: T2, human IL2Ra; experiment: IL2Ra direct binding ELISA, signal ratio to isotype control
Procedure, shortened: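 Plates coated overnight at 4-8 °C with IL2RA at 1 or 0 μg/ml, blocked with SmartBlock. Antibody dilution series from 1E-7 to 2E-13 M bound 90 min at room temperature, detected with HRP anti-mouse IgG and Amplex red/H2O2; fluorescence at 535/590 nm.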

Binder	IC50 (murine IL-11)	hIL2RA ELISA Binding: Ratio to Isotpye (human IL2Ra)
B1	3.9 nM	–
B2	–	398 ratio
